{
  "source": "patent US20260167679A1",
  "about": "“FUSION PROTEIN TARGETING MITOCHONDRIA, METHOD OF MAKING AND USE THEREOF” (UNIVERSITY OF ROCHESTER, priority 2020, published 2026)",
  "molecules": {"B1": {"name": "mtON: fusion of the 187 N-terminal amino acids of mouse IMMT1 to the light-activated proton pump (Mac) from Leptosphaeria maculans (protein)", "chain": "MLRACQLSGVTVAAQSCLCGKFVLRPLRPCRRYSTSSSSGLTAGKIAGAGLLFVGGGIGGTILYAKWDSHFRESVEKTIPYSDKLFGMVLGSAPYTVPLPKKPVQSGPLKISSVSEVMKDSKLPVAQSQKTKGDTPASAASTGAAQIISAAGDTLSVPAPAVQHEDTIKTECPNTNEGKSTSETTEEPAGLIVDQFEEVLMKTSQLFPLPTATQSAQPTHVAPVPTVLPDTPIYETVGDSGSKTLWVVFVLMLIASAAFTALSWKIPVNRRLYHVITTIITLTAALSYFAMATGHGVALNKIVIRTQHDHVPDTYETVYRQVYYARYIDWAITTPLLLLDLGLLAGMSGAHIFMAIVADLIMVLTGLFAAFGSEGTPQKWGWYTIACIAYIFVVWHLVLNGGANARVKGEKLRSFFVAIGAYTLILWTAYPIVWGLADGARKIGVDGEIIAYAVLDVLAKGVFGAWLLVTHANLRESDVELNGFWANGLNREGAIRIGEDDGAR", "modifications": "Synthetic Complete mtON fusion protein sequence"}},
  "key": {"C. elegans": {"tested_on": "C. elegans", "test": "ETC inhibitor assays, survival of animals", "type": "in vivo, Caenorhabditis elegans", "description": "Experiments were performed on at least three separate days, using 15-100 young adult animals per plate. Seeded plates were supplemented with rotenone (50 μM final concentration), antimycin A (50 μM final concentration), or oligomycin A (31 μM final concentration) 24 h before animals were transferred onto them. For azide toxicity, animals were placed in M9 buffer with 250 mM azide. Control plates were kept in the dark, and experimental plates were exposed to 1 Hz light (Quantum LED, 0.02 mW/mm^2) for the duration of the experiment. For all toxins, animals that were moving or those that moved in response to a light touch to the head were scored as alive. For rotenone, surviving animals were scored after 5 h. For antimycin A, animals were scored 16 h after exposure. For azide, animals were exposed for 1 h in M9 and allowed to recover for 1 h on a seeded culture plate and then survival was scored. Azide experimental plates were exposed to light (XCite LED, 0.19 mW/mm^2) for the duration of azide treatment and recovery. […]. For oligomycin A, animals were scored 18 h after exposure.\nExperiments were carried out using a hypoxic chamber (Coy Laboratory Products, 5%/95% H2/N2 gas, palladium catalyst) at 26° C. with 50-100 animals per plate. O2 was <0.01%. Hypoxic preconditioning (PC) duration was 4 h, and control animals were incubated at 26° C. in room air for the same time. 1 Hz illumination (Quantum LED, 0.02 mW/mm^2) was carried out during PC period or during the hypoxic period. Hypoxic exposure was for 18.5, 21 h after PC. Twenty-four hours after hypoxia exposure, animals that were moving or those that moved in response to a light touch to the head were scored as alive. Data from days where PC was at least 15% effective for both +ATR and −ATR were used. Animals supplemented with ATR were allowed to lay eggs onto plates with no ATR that were subsequently used for HR experiments to minimize confounding effects of ATR. ATR from the parent animal was sufficient to provide active mtON in progeny as tested by the azide toxin assay described above. […] FCCP dissolved in ethanol was deposited onto seeded NGM plates."}, "[1]": {"tested_on": "isolated C. elegans mitochondria", "test": "Mitochondrial membrane potential measurement (TMRE) in isolated mitochondria", "type": "biochemical, Caenorhabditis elegans", "details": "mtON activation (+ATR, +light), rotenone, no added substrate, non-phosphorylating", "description": "Isolated mitochondria at 0.5 mg/ml were stirred in mitochondrial respiration buffer (MRB: 120 mM KCl, 25 mM sucrose, 5 mM MgCl2, 5 mM KH2PO4, 1 mM EGTA, 10 mM HEPES, 1 mg/ml FF-BSA, pH 7.35) at 25° C. in the presence of 2 μM rotenone and 5 mM succinate where indicated. 300 nM tetramethylrhodamine ethyl ester (TMRE, Thermo Fisher, T669) was added to observe mitochondrial membrane potential in quench mode. Under quenching conditions, TMRE fluorescence is low in the presence of a AWm. Upon addition of a protonophore (e.g., FCCP), TMRE will exit mitochondria and dequench and increase total fluorescence. TMRE signal was measured by Cary Eclipse Fluorescence Spectrophotometer (Agilent Technologies) using a 335-620 nm excitation filter and a 550-1,100 nm emission. […] Increasing illumination time exposed mitochondria to more photons (calculated as fluence, J/cm^2). […] The average fluorescence intensity after addition of 2 μM FCCP (maximum fluorescence in quench mode) was subtracted from the starting test condition to give a change in fluorescence corresponding to changes in ΔΨm (ΔF for conditions without succinate, and ΔFmax for conditions with succinate). To represent polarization of the ΔWm, the ratio of change in fluorescence (DF, FCCP fluorescence minus experimental fluorescence) was used to the maximum change in fluorescence generated by succinate-driven Δψm (ΔFmax)."}, "[2]": {"tested_on": "isolated C. elegans mitochondria", "test": "Mitochondrial matrix pH measurement (BCECF-AM)", "type": "biochemical, Caenorhabditis elegans", "details": "mtON activation by light", "description": "The ratiometric pH indicator BCECF-AM (Thermo Fisher, B1170) was used to measure pH changes in the mitochondrial matrix in response to succinate respiration or mtON activation. Isolated mitochondria (˜200 μl per isolation) were incubated at room temperature with 50 μM BCECF-AM for 10 min with periodic mixing. Mitochondria were then pelleted at 7,000 g for 5 min at 4° C., and isolation media replaced and pelleted again to remove extramitochondrial BCECF-AM. Isolated mitochondrial suspensions were then assayed under the same conditions as in the mitochondrial membrane potential measurements described above. Ratiometric fluorescent signal was measured by Cary Eclipse Fluorescence Spectrophotometer (Agilent Technologies) using 440 and 490 nm excitation wavelengths and 545 nm emission. The fluorescence intensity ratio at 545 nm of 490/440 nm excitation wavelengths was used to represent pH changes in the mitochondrial matrix. Light treatment was 0.16 J/cm^2 (XCite LED, 0.02 mW/mm^2), and 2 μM FCCP was used at the end of each trace to establish baseline signal."}, "HEK293T cells": {"tested_on": "HEK293T cells", "test": "Luciferase-based ATP assay in HEK293T cells", "type": "cell-based", "details": "590 nm light, with or without 2-DG, vs cells in the dark", "description": "(A) HEK293T cells expressing mtOn or GFP were illuminated with 590 nm light for 2 hours, followed by a luciferase-based ATP assay. (B) Same set-up as in (A), except HEK293T cells were treated with 10 mM 2-DG for 2 hours prior to illumination. (C) Activated CD8+ T cells were sorted based on GFP expression. GFP negative cells were used as the mock control. CD8+ T cells received 590 nm light for 30 minutes, followed by a luciferase-based ATP assay. All data shown as mean±SEM and analyzed by an unpaired t-test (n=4-7).\nTo test whether mitochondrial polarization driven by light-activated proton transport leads to enhanced ATP production (FIG. 9, panel A), the study transfected HEK293T cells and mouse CD8+ T cells with mtON, illuminated the cells (590±10 nm, 0.32 mW/mm^2 at 1 Hz), and immediately lysed them to detect ATP. 2-Deoxy-D-glucose (2-DG), a glucose analog, was used to inhibit glycolysis and thus mimic the glucose-deficient TME.\nTo test whether the mitochondrial polarization driven by light-activated proton transport leads to enhanced ATP production, we transfected HEK293T cells and mouse CD8+T cells with mtON, illuminated (590±10 nm, 0.32 mW/mm^2 at 1 Hz) them, and immediately lysed to detect ATP. 2-Deoxy-D-glucose (2-DG), a glucose analog, was used to inhibit glycolysis and thus mimic the glucose-deficient tumor microenvironment."}},
  "data": [
    {"molecule": "B1", "values": [
      {"measurement": "survival", "setting": "C. elegans; 31 μM oligomycin A, scored 18 hours later", "value": "No significant differences"},
      {"measurement": "survival", "setting": "C. elegans; 50 μM rotenone for 5 hours, +ATR +light", "value": "greater than the ATR alone effect"},
      {"measurement": "survival", "setting": "C. elegans; azide toxin assay, progeny of ATR-supplemented parents, +ATR +light", "value": 66.8, "unit": "%"},
      {"measurement": "survival of animals exposed to ETC toxins", "setting": "C. elegans; mtON active vs controls", "value": "survived more"},
      {"measurement": "polarization of Δψm (TMRE)", "setting": "[1]", "value": "polarize the Δψm as much as ETC-driven respiration"},
      {"measurement": "mitochondrial matrix pH (BCECF-AM ratio)", "setting": "[2]", "value": "matrix pH increased"},
      {"measurement": "ATP", "setting": "HEK293T cells", "value": "significant increase in ATP"}
    ]}
  ]
}
